In the nanobody polyreactivity screen of Harvey et al. (2022):

Experiment: yeast display, Sf9 membrane polyspecificity reagent, FACS + sequencing; frameworks hold sequencing errors
Outline: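 After 36–48 hours of galactose induction, yeast (Saccharomyces cerevisiae BJ5465) displaying a synthetic nanobody library were stained at 4 °C for 1 hour with 10% biotinylated, detergent-solubilized Sf9 membrane reagent. Streptavidin microbeads enriched the stained cells before FACS sorting into low and high (top ~1%) gates on anti-HA and streptavidin fluorescence. Each clone's polyreactivity label reflects its gate of origin.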

Sequence: QVQLVESGGGLVQAGGSLRLSCAASGSILVPNAMGWYRQAPRKERELVAGISANGGSTYYADSVKGRFTISRDNAKNTVYFQMNSLKPEDTAVYDCNARLYWDWYGDDYWGQGTQVTVSS
- polyreactivity (PSR sort gate): low polyreactivity

Sequence: QVQLHESGGGLVQAGGGLRLSSAASGSISSTGFMGWYRQAPGKEREPVAAIAPGTTTYYADSVKGRFTISRDNAKNTVYLQMNSLRPEDTAVYYCAVFTDNRVAFLYWGQGTQVTVSS
- polyreactivity (PSR sort gate): low polyreactivity

Sequence: QVQLVESGGGLVQAGGSLRLSCAASGRTFNFYAMGWYRQAPGKERELVAAISRTGGITYYADSVKGRFTISRDNAKNTVYLQMNSLKPEDTAVYYCNAEYIYYYPTDPYTYYYWGQGTQVTVSS
- polyreactivity (PSR sort gate): low polyreactivity

Sequence: QVQLVESGGGLVQAGGSLRLSCAASVRIFLWYAMGWYRQAPGKERELVAAITKSAGTTYYADSVKGRFTISRDNAKNTVYLQMNSLKPEDTAVYYCGAYYWLYAHWRFGNYWGQGTQVTVSS
- polyreactivity (PSR sort gate): low polyreactivity

Sequence: QVQLVESGGGLVQAGCSLRLSCAASGRIFGTNDMGWYRQAPGKERELVAAINGSDSSTYYADSVKGRFTISRDNAKNTVYFQMNSLKPEDTAVYYCNADWSGAPERSTDGYDYWGQGTQVTVSS
- polyreactivity (PSR sort gate): low polyreactivity

Sequence: QVQLVESGGGLVQAGGSLRLSCAASGSTFMDYAMGWYRQAPGKERELVAAISSGGSTNYADSVKGRFTISRDNAKNTVYLQMNSLKPEDTAVYYCNADYYWSRTQEFDYWGQGTQVTVSS
- polyreactivity (PSR sort gate): high polyreactivity

Sequence: QVQLQESGGGQVQAGGSLRLSCAPSGYISSWYPKGWYRQAPGKEPEFVATIAPGATNYYADSVKGRFTISRDYAKNTVYQQMNSLKPEDTAVYYCAVVSNGRRERYYYWGQGTQVTVSS
- polyreactivity (PSR sort gate): low polyreactivity

Sequence: QVQLVESGGGLVQAGGSLRLSCAASGSILWHYAMGWYRQAPGKERELVAAISGSGRTNYADSVKGRFTISRDNAKNTVYLQMNSLKPEDTAVYYCARVHGTSESKYYYWGQGTQVTVSL
- polyreactivity (PSR sort gate): low polyreactivity

Sequence: QDQLVESGGGLVQAGGSLRLSCAAYGSILGGNAMGWYRPAPGKERELVAAITFSGGGTYYADSVKGRFTISRDNAKNTVYLQMNSMKPEDTAVYYCAADKDGYTYEFDYWGQGTQVTVSS
- polyreactivity (PSR sort gate): low polyreactivity

Sequence: QVQLVESGGGLVQAGGSLRLSCAASGITFYSYAMGWYRQAPGKERELVAAISTTVGSTYYADSVKGRFTISRDNAKNTVYLQMNSLKPEDTAVYYCNAYRVYAWIEYNYWGQGTQVTVSS
- polyreactivity (PSR sort gate): low polyreactivity

Sequence: QVQLVESGGGLVQAGGSLRLSCAASGSTFVGYAMGWYRQAPGKERELVAAISYSGGSTYYADSVKGRFTISRDNAKNTVYLQMNSLKPEDTAVYYCAAEWSRHYYYGPRYDYWGQGTQVTVSS
- polyreactivity (PSR sort gate): low polyreactivity

Sequence: QVQLVESGGGLVQAGGSLRLSCAASGFTFDDYAMGWYRQAPGKERELVATITNSDSSTYYADSVKGRFTISRDNAKNTVYLQMNSLKPEDTAVYYCNADGEGADSDYDYWGQGTQVTVSS
- polyreactivity (PSR sort gate): low polyreactivity

Sequence: QVQIVETGGGLVQAGGSLGLSCAASGSNFGGNTMPCYRQAPGIERALVAAISRSGGSTYYADSVKGRFTISRDIAQNSVYVQMNSLKPEDTAVYYCNRKQAGQAQGYDYWGLGTQVTVSS
- polyreactivity (PSR sort gate): high polyreactivity

Sequence: QVQLVESGGGLVQAGGSLRLSCAASGFIFAVYAMGWYRQAPGKERELVARISSGRGSTYYADSVKGRFTISRDNAKNTVYFQMNSLKPEDTAVYYCAADPVHRFPGTGGYWGQGTQVTVSS
- polyreactivity (PSR sort gate): low polyreactivity

Sequence: QVQLVESGGGLVQAGGSLRLSCAASGYTFRIYAMGWYRLAPGKERELVAGISSRGTSTYYADSVKGRFTISRDNAKNTVYLQMNSLKPEDTAVYYCAAGRYGRLYGYWGQGTQVTVSS
- polyreactivity (PSR sort gate): high polyreactivity

Sequence: QVQLVESGGGLVQAGGSLRLSCAASGSTFYVYAMGWYRQAPGKERELVAAISSSGARTYYADSVKGRFTISRDNAKNTVYLQMNSLKPEDTAVYYCAARRYYKFYYWGQGTQVTVSS
- polyreactivity (PSR sort gate): high polyreactivity

Sequence: QVQLVESGGRLLQAGGSLRLSCAASGIIFVYYDMGWYRQAPGKERELVAVITESGVSTYYADSVKGRFTISRDNAKKTVYLQMNSLKPEDTAVYYCDTSVDRGLGYWGQGTQVTVSS
- polyreactivity (PSR sort gate): low polyreactivity

Sequence: QVQLVESGGGLDQAGGSLRLSCAASGRIFVYNAMGWSRQAPGKARELVATITFSSSNTYYADSVKGRFTISRENAKNTVYLQMNSLKPEDTAVYYCYRDYVYARDYGNFDYWGQGTQVTVSS
- polyreactivity (PSR sort gate): low polyreactivity

Sequence: QVQLVESGGGLVQAGGSLRLSCAASGSIFYYNAMGWYRQAPGKERELVAAIRRSGGRTYYADSVKGRFTISRDNAKNTVYLQMNSLKPEDTAVYYCAAVHYDRVTGQVDHDYWGQGTQVTVSS
- polyreactivity (PSR sort gate): high polyreactivity

Sequence: QVQLVESGGGLVQAGGSLRLSCAASGGIFPFYAMGWYRQAPGKERELVAAISSGGSTYYADSVKGRFTISRDNAKNTVYLQMNSLKPEDTAVYYCAKRISTRRYDYWGQGTQVTVSS
- polyreactivity (PSR sort gate): low polyreactivity

Sequence: QVQLVESGGGLVQAGGSLRLSCAASGYTFYGYAMGWYRQAPGKERELVAAISWSGTNTNYADSVKGRFTISRDNAKNTVYLQMNSLKPEDTAVYYCAAGYYYRGFHTEDYWGQGTQVTVSS
- polyreactivity (PSR sort gate): high polyreactivity

Sequence: QVQLVESGGGLVQAGGSLRLSCAASGNIFAWYAMGWYRQAPGKERELVADISSRGGSTYYADSVKGRFTISRDNAKITVYLQMNSLKPEDSAVYYCAAVWYWTQDYDYWGLGTQVTVSS
- polyreactivity (PSR sort gate): low polyreactivity

Sequence: QVQIVESGGGLVQAGGTLRLSCAPSGRTFAPNTMGWYRHAPGKEREFVARINSRGGSTYADSVKGRFTISRDNAKNTVYLQMNSLKPEDTAVYYCARKPYRGVYRYDYWGQGTQVTVSS
- polyreactivity (PSR sort gate): high polyreactivity

Sequence: QVQLVESGGGLVQAGGSLRLSCAASGFTFWTYDMGWYRQAPGKERELVAAISTSGGSTYYADSVKGRFTISRDNAKNTVYLQMNSLKPEDTAVYYCAAYAIGEHFRARYGYWGQGTQVTVSS
- polyreactivity (PSR sort gate): high polyreactivity

Sequence: QVQLVESGGGLVQAGGSLRLSCAASGRIFFWYVMGWYRQAPGKERELVAAISSGGRTYYADSVKGRFTISRDNAKNTVYLQMNSLKPEDTAVYYCNVEEYHVRADIGYSNYGYWGQGTQVTVSS
- polyreactivity (PSR sort gate): low polyreactivity

Sequence: QVQLVESGGGLVQEGGSLRLSCAASGIIFLWYTMGWYRQAPGKERELVATISWAGGSTYADSVKGRFTISRDNAKNTVYLPMNSLKPEDTAVYYCNTEIYVDIISDYGYWGQGTQVTVSS
- polyreactivity (PSR sort gate): low polyreactivity

Sequence: QVQLVESGGGLVQAGGSLRLRCAASGITTRTYAMGWYRQAPGKERELVAAISDSGDRTYYADSVKGRFTISRDKAKNTVYFQMNSVKPEDTAVYYCAVDGPGPRCEFWGQGTKVTVSS
- polyreactivity (PSR sort gate): low polyreactivity

Sequence: QVQLVESGGGLVQAGGSLRLSCAASGFTFYRYAMGWYRQAPGKERELVAAISRSGGSTSYADSVKGRFTISRDNAKNTLYLQMNSLTPEDTEVYYCATRNWYSLKDYYYWGQGTQVTVSS
- polyreactivity (PSR sort gate): high polyreactivity

Sequence: QVQLVESGGGLVQAGGSLRLSCAASGRTFHTYAIGWYRQAPGKERELVAAITRRGGSTYYADSVKGRFTISRDNAKNTVYLQMNSLKPEDTAVYYSAAPWYGYWGQGTQVTVSS
- polyreactivity (PSR sort gate): high polyreactivity

Sequence: QVQLVESGGGLVQAGGIHRLSCPASGIIFYYYAMGWYRHAPGKESELVAAISWSGGSTYYADSVKGRFTISRDNAKYTVYLQMNSLKPEDTAVYYCAAAFSPGWWSRHTYDYDYWVQGTQVTVSS
- polyreactivity (PSR sort gate): high polyreactivity

Sequence: QVQLVESCGGLVQAGGSLRLSCASSGRNFPVKAMGWYRQAPGKERELVAGITWSGDGSTYYADSVKGRFTISRDNAKNTVYLLMNSLKPEDTAVYYCAARLNLQGRYDYWGQGTQVTVSS
- polyreactivity (PSR sort gate): low polyreactivity

Sequence: QVQLVESGGGLVQAGGSLRLSCAASGSTFSKYAMGWYRQAPGKERELVAAITRTTGRTYYADSVKGRFSISRDNAKNTVYLHMNSLKPEDTAVDYCAARSPYYRAYKYDYWGQGTQVTVSS
- polyreactivity (PSR sort gate): high polyreactivity
